Values of other authors as cited in PMC5650668.
Where two headings read alike, the source gives them in different places.

Columns and labels:
[1] = molecular target: ω-agatoxin IVA (Agelenopsis aperta) (UniProt P30288)
[2] = molecular target: ω-agatoxin IVA (Agelenopsis aperta) (UniProt P30288); remark: listed apart in the source

UniProt P30288, sequence (P30288 whole entry): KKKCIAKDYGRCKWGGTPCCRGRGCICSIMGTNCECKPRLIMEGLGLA

Substance	Kd [1] [nM]	Kd [2] [nM]
Cav2.1 (P current component) (from UniProt P54282)	2	–
Cav2.1 (Q current component) (from UniProt P54282)	–	> 100
